Results reported in publication PMC8988006, “Structural and biochemical characterization of the prenylated flavin mononucleotide-dependent indole-3-carboxylic acid decarboxylase” (The Journal of Biological Chemistry, 2022).
Numbering of substitutions follows the chain as printed.

Legend:
[1] = tested on: T1, O=C(O)c1c[nH]c2ccccc12; test: purified protein; type: biochemical, Glutamicibacter nicotianae; settings: prFMN-reconstituted enzyme, Mn2+, 50 mM potassium phosphate pH 6.5, 50 mM KCl, room temperature, apparent because active enzyme (prFMN) content is unknown
T1 construct: His6-tagged (C-terminal in pET30a or N-terminal in pET28a), E. coli BL21(DE3), Ni-NTA, ~50 kDa by SDS-PAGE, hexamer, reconstituted with prFMN and Mn2+

[2] = biological target: indole-3-carboxylate decarboxylase from Arthrobacter nicotianae (Arthrobacter nicotianae); test: crystal structure; AnInD at ca 15 mg/ml, sitting drop vapor diffusion, PACT screen condition G5, 20 °C; crystals soaked with prFMN; space group P2_(1); whole hexamer in the asymmetric unit
[3] = biological target: indole-3-carboxylate decarboxylase from Arthrobacter nicotianae (Arthrobacter nicotianae); test: SAXS; HPLC SAXS (Shodex KW-403 column, 0.15 ml/min) on beamline B21, Diamond Light Source; ab initio envelope (DAMMIN/DAMAVER) with the hexamer crystal structure superimposed
[4] = biological target: T2, AnInD (indole-3-carboxylic acid decarboxylase) (Glutamicibacter nicotianae, UniProt Z9P359VB74, D169L); test: end point HPLC decarboxylation assay; type: biochemical; settings: prFMN-reconstituted; 50 mM potassium phosphate pH 6.5, 10 mM I3C, 2 μM enzyme
T2 construct: His6-tagged (C-terminal in pET30a or N-terminal in pET28a), E. coli BL21(DE3), Ni-NTA, ~50 kDa by SDS-PAGE, hexamer, reconstituted with prFMN and Mn2+
T2 sequence (Z9P359VB74 2-461 D169L): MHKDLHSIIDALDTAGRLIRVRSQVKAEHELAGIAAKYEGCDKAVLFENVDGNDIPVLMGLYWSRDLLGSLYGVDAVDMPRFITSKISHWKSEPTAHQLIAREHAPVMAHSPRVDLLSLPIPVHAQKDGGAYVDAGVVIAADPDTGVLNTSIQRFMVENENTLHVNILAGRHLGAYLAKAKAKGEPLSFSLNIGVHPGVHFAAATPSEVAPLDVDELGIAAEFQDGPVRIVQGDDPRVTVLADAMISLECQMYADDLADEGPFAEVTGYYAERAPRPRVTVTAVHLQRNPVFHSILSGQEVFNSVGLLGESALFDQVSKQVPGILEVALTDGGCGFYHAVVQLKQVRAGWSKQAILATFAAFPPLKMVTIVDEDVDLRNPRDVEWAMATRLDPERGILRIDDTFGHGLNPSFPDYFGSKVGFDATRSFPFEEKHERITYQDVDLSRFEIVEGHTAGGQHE

[5] = biological target: T3, AnInD (indole-3-carboxylic acid decarboxylase) (Glutamicibacter nicotianae, UniProt Z9P359VB74, D169A); test: end point HPLC decarboxylation assay; type: biochemical; settings: prFMN-reconstituted; 50 mM potassium phosphate pH 6.5, 10 mM I3C, 2 μM enzyme
T3 construct: His6-tagged (C-terminal in pET30a or N-terminal in pET28a), E. coli BL21(DE3), Ni-NTA, ~50 kDa by SDS-PAGE, hexamer, reconstituted with prFMN and Mn2+
T3 sequence (Z9P359VB74 2-461 D169A): T2 sequence (Z9P359VB74 2-461 D169L) with L168A

[6] = biological target: T4, AnInD (indole-3-carboxylic acid decarboxylase) (Glutamicibacter nicotianae, UniProt Z9P359VB74, D169V); test: end point HPLC decarboxylation assay; type: biochemical; settings: prFMN-reconstituted; 50 mM potassium phosphate pH 6.5, 10 mM I3C, 2 μM enzyme
T4 construct: His6-tagged (C-terminal in pET30a or N-terminal in pET28a), E. coli BL21(DE3), Ni-NTA, ~50 kDa by SDS-PAGE, hexamer, reconstituted with prFMN and Mn2+
T4 sequence (Z9P359VB74 2-461 D169V): T2 sequence (Z9P359VB74 2-461 D169L) with L168V

[7] = biological target: T5, SrCAR (Seginiliparous rugosus carboxylic acid reductase) (Segniliparus rugosus, UniProt E5XP76); test: one-pot cascade with AnInD, HPLC; type: biochemical; settings: I3C formed in situ from indole + NaHCO3 by AnInD; ATP, NADPH, Mn2+, Mg2+; potassium phosphate, 30 °C
T5 construct: gene car
T5 sequence (E5XP76 1-1188): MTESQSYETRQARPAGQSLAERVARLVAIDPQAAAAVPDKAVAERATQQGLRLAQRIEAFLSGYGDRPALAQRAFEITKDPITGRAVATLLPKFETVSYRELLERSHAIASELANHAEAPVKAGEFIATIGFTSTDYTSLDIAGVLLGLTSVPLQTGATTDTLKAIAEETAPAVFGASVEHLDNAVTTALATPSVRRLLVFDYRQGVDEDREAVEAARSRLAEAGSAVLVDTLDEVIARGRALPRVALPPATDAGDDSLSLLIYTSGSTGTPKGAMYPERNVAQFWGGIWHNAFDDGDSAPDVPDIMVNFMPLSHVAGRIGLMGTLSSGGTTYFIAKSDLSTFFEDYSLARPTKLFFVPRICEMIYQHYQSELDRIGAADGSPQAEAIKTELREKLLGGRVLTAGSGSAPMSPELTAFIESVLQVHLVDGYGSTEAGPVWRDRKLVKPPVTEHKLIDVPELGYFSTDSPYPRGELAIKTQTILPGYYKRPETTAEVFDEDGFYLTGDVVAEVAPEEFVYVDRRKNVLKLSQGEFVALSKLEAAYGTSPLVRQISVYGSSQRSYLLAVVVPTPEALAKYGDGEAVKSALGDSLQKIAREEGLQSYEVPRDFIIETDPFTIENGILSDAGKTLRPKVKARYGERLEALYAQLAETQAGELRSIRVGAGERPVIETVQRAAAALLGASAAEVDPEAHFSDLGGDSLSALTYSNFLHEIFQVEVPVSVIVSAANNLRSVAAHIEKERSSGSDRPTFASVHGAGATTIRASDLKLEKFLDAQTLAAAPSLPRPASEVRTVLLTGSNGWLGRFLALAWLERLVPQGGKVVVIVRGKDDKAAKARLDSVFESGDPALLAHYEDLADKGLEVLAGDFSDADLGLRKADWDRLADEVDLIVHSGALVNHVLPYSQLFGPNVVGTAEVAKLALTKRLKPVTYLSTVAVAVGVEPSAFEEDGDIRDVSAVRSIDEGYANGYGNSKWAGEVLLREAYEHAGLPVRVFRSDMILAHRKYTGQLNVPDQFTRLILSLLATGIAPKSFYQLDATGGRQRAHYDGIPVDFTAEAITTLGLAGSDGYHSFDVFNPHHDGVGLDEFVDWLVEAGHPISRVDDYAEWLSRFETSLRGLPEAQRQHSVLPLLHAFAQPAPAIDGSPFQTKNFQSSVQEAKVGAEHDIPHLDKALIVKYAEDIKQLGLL

“AnInD (indole-3-carboxylic acid decarboxylase) (Glutamicibacter nicotianae)” was tested, and the Km [1] was 790 µM and the kcat [1] was 4.4 (±0.3) s^−1.
Molecule “indole-3-carboxylate decarboxylase from Arthrobacter nicotianae (enzyme)” has a stoichiometry N [2] of 6 and a stoichiometry N [3] of 6.
For `O=C(O)c1c[nH]c2ccccc12` [I3C, indole-3-carboxylic acid], the activity [4] was “All AnInD D169X variants were found to be severely affected in activity”, the activity [5] was “All AnInD D169X variants were found to be severely affected in activity” and the activity [6] was “All AnInD D169X variants were found to be severely affected in activity”. For the same molecule, the “one-pot cascade with AnInD, HPLC” value [7] was “These assays revealed the formation/production of indole-3-carboxyaldehyde”.
